Laboratory results published in patent US20260207767A1 (ANAVEON, published 2026).

T1: IL-2R CD122-CD132 on Jurkat-PD1+CD122+ cells (UniProt P14784 27-551; P31785 23-369)
T1 sequence (looked up) 1: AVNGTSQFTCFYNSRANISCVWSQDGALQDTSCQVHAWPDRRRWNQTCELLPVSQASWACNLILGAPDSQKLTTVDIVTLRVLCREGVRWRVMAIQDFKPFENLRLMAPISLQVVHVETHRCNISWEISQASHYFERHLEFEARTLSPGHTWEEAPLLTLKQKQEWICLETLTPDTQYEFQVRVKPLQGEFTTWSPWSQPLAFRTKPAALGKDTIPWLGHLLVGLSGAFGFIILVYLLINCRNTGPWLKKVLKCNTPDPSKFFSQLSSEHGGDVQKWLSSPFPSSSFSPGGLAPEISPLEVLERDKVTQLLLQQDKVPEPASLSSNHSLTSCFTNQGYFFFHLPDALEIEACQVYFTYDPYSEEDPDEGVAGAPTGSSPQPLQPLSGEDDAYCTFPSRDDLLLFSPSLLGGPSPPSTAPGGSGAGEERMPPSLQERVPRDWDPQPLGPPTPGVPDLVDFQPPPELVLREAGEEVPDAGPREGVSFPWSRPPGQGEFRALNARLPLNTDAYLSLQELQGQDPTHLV
T1 sequence (looked up) 2: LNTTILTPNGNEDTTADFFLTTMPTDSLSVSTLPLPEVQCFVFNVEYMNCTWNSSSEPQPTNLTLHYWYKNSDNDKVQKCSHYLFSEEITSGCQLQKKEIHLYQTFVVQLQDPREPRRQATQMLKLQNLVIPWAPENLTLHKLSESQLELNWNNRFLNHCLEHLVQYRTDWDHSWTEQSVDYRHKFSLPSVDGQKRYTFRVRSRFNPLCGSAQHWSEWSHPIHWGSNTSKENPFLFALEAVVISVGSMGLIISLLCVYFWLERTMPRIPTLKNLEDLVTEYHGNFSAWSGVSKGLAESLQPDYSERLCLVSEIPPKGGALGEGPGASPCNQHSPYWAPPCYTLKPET

B1: LTJ498 (bispecific antibody, human IgG1, lambda, L234A L235A)
heavy 1: EVQLLESGGGLVQPGGSLRLSCAASGFTFSINAMTWVRQAPGKGLEWVSTISGSGFSTYYADSLKGRFTISRDNSKNTLYLQMNSLRAEDTAVYYCAKEVYGDYWGQGTLVTVSSASTKGPSVFPLAPSSKSTSGGTAALGCLVKDYFPEPVTVSWNSGALTSGVHTFPAVLQSSGLYSLSSVVTVPSSSLGTQTYICNVNHKPSNTKVDKRVEPKSCDKTHTCPPCPAPEAAGGPSVFLFPPKPKDTLMISRTPEVTCVVVDVSHEDPEVKFNWYVDGVEVHNAKTKPREEQYNSTYRVVSVLTVLHQDWLNGKEYKCKVSNKALAAPIEKTISKAKGQPREPQVYTLPPSREEMTKNQVSLTCLVKGFYPSDIAVEWESNGQPENNYKTTPPVLDSDGSFFLTSKLTVDKSRWQQGNVFSCSVMHEALHNHYTQKSLSLSPGK
light: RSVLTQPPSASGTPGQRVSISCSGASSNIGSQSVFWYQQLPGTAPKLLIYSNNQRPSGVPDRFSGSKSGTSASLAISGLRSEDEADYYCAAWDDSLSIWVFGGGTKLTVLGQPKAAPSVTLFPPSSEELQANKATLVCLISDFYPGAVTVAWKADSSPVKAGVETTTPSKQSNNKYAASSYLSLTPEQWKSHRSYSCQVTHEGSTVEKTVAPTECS
heavy 2: AIRLTQSPSSFSASTGDRVTITCKASQSVDYGGGNFHLRPRDLISNINVIVLELKGSETTFMCEYADETATIVEFLNRWITFSQSIISTLTPTSSSTKKTQLQLEHLLLDLQMILNGINNYKNPKLTRMLTFKFYMPKKATELKHLQCLEEELKPLEEVLNLAQSKGGGGDSYMNWYQQKPGKAPKLLIYAASNLESGVPSRFSGSGSGTDFTLTISSLQSEDFATYYCQQSNEDPYTFGGGTKVEIKGGGGSGGGGSGGGGSEVQLVQSGAEVKKPGESLKISCKGSGYAFTNYLIEWVRQMPGKGLEWMGVINPGSGGTNYNEKFKGQVTISADKSISTAYLQWSSLKASDTAMYYCARWRGEGYYAYFDVWGQGTTVTVSSGGGGSGGGGSEVQLLESGGGLVQPGGSLRLSCAASGFTFSINAMTWVRQAPGKGLEWVSTISGSGFSTYYADSLKGRFTISRDNSKNTLYLQMNSLRAEDTAVYYCAKEVYGDYWGQGTLVTVSSASTKGPSVFPLAPSSKSTSGGTAALGCLVKDYFPEPVTVSWNSGALTSGVHTFPAVLQSSGLYSLSSVVTVPSSSLGTQTYICNVNHKPSNTKVDKRVEPKSCDKTHTCPPCPAPEAAGGPSVFLFPPKPKDTLMISRTPEVTCVVVDVSHEDPEVKFNWYVDGVEVHNAKTKPREEQYNSTYRVVSVLTVLHQDWLNGKEYKCKVSNKALAAPIEKTISKAKGQPREPQVYTLPPSREEMTKNQVSLYCLVKGFYPSDIAVEWESNGQPENNYKTTPPVLDSDGSFFLYSKLTVDKSRWQQGNVFSCSVMHEALHNHYTQKSLSLSPGK
B2: XWY176 (bispecific antibody, human IgG1, kappa, lambda, L234A L235A)
heavy 1: B1 heavy 1
light 1: not shown
heavy 2: EVQLVQSGAEVKKPGESLKISCKGSGYAFTNYLIEWVRQMPGKGLEWMGVINPGSGGTNYNEKFKGQVTISADKSISTAYLQWSSLKASDTAMYYCARWRGEGYYAYFDVWGQGTTVTVSSASTKGPSVFPLAPSSKSTSGGTAALGCLVKDYFPEPVTVSWNSGALTSGVHTFPAVLQSSGLYSLSSVVTVPSSSLGTQTYICNVNHKPSNTKVDKRVEPKSCDKTHTCPPCPAPEAAGGPSVFLFPPKPKDTLMISRTPEVTCVVVDVSHEDPEVKFNWYVDGVEVHNAKTKPREEQYNSTYRVVSVLTVLHQDWLNGKEYKCKVSNKALAAPIEKTISKAKGQPREPQVYTLPPSREEMTKNQVSLYCLVKGFYPSDIAVEWESNGQPENNYKTTPPVLDSDGSFFLYSKLTVDKSRWQQGNVFSCSVMHEALHNHYTQKSLSLSPGK
light 2: not shown
B3: YPW986 (bispecific antibody, human IgG1, kappa, L234A L235A)
heavy 1: EVQLLESGGGLVQPGGSLRLSCAASGFTFSINAMTWVRQAPGKGLEWVSTISGSGFSTYYADSLKGRFTISRDNSKNTLYLQMNSLRAEDTAVYYCAKEVYGDYWGQGTLVTVSSASVAAPSVFIFPPSDEQLKSGTASVVCLLNNFYPREAKVQWKVDNALQSGNSQESVTEQDSKDSTYSLSSTLTLSKADYEKHKVYACEVTHQGLSSPVTKSFNRGECDKTHTCPPCPAPEAAGGPSVFLFPPKPKDTLMISRTPEVTCVVVDVSHEDPEVKFNWYVDGVEVHNAKTKPREEQYNSTYRVVSVLTVLHQDWLNGKEYKCKVSNKALAAPIEKTISKAKGQPREPQVYTLPPSREEMTKNQVSLTCLVKGFYPSDIAVEWESNGQPENNYKTTPPVLDSDGSFFLTSKLTVDKSRWQQGNVFSCSVMHEALHNHYTQKSLSLSPGK
light 1: RSVLTQPPSASGTPGQRVSISCSGASSNIGSQSVFWYQQLPGTAPKLLIYSNNQRPSGVPDRFSGSKSGTSASLAISGLRSEDEADYYCAAWDDSLSIWVFGGGTKLTVLSSASTKGPSVFPLAPSSKSTSGGTAALGCLVKDYFPEPVTVSWNSGALTSGVHTFPAVLQSSGLYSLSSVVTVPSSSLGTQTYICNVNHKPSNTKVDKRVEPKSC
heavy 2: B2 heavy 2
light 2: not shown
B4: 21A08Q (antibody, V domains shown)
VH: EVQLLESGGGLVQPGGSLRLSCAASGFTFSINAMTWVRQAPGKGLEWVSTISGSGFSTYYADSLKGRFTISRDNSKNTLYLQMNSLRAEDTAVYYCAKEVYGDYWGQGTLVTVSS
VL: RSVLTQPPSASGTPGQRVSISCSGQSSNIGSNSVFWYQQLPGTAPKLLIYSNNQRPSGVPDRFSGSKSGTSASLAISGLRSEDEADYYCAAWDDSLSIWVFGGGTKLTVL
notes: position not given
B5: 21A08S (antibody, V domains shown)
VH: B4 VH
VL: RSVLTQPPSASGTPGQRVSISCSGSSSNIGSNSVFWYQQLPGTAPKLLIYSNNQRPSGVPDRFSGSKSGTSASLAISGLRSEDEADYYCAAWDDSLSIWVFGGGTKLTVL
notes: position not given; tested as supernatant
B6: 21A08A (antibody, V domains shown)
VH: B4 VH
VL: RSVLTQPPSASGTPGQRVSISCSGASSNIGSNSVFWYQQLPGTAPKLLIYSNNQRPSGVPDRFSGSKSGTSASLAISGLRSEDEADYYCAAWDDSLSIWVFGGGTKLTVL
notes: position not given

How the values were obtained:
[1] = molecular target: T1, IL-2R CD122-CD132 on Jurkat-PD1+CD122+ …; test: cell-based or functional assay
[2] = molecular target: T2, recombinant hPD-1 (construct not stated) (human, UniProt Q15116 25-167, limits assumed); test: BLI, supernatants
T2 construct: also called huPD-1; Human PD1
From the text: In order to remove an N-glycosylation site present in the CDR-L1, mutations were inserted in the CDR-L1 of 21A08. The first asparagine ([…], N) in CDR-L1, was replaced by a serine (Ser, S), Glutamine (Gln, Q), or Alanine (Ala, A).

hPD-1 His-tagged = molecular target: T3, hPD-1 His-tagged (human, UniProt Q15116 25-167); test: SPR, Ab captured, PD-1 analyte
T3 construct: also called recombinant hPD-1 (AcroBio)
Procedure: (§1) 10 mM glycine (pH 1.5) as regeneration buffer was injected to flow cells following every dissociation phase.

[3] = molecular target: T4, cynoPD-1 His (AcroBiosystems PD1-C5223) (cynomolgus monkey, UniProt B0LAJ3 25-170); test: SPR, Ab captured, PD-1 analyte
T4 construct: also called cPD-1; cynomolgus PD-1 His-tagged
Procedure: as §1

T3 sequence (Q15116 25-167 limits assumed): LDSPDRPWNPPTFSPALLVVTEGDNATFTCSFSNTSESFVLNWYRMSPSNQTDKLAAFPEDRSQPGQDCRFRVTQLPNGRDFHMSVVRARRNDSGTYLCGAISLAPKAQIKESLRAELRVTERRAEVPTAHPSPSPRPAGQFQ
T2 sequence (Q15116 25-167 limits assumed): as above
T4 sequence (B0LAJ3 entry or part of it limits assumed): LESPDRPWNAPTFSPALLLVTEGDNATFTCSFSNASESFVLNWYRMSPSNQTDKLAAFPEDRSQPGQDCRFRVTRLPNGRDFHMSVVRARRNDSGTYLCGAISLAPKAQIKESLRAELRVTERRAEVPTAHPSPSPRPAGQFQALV

Binder | EC50 value for pSTAT5 induction, Jurkat-PD-1+CD122+ cells [1] | Kd [2] | koff [2] | further results
B1 | 0.24 nM | – | – | –
B2 | 0.27 nM | – | – | –
B3 | 43.9 nM | – | – | –
B4 | – | 3.39 nM | 0.000267 s⁻¹ | –
B5 | – | 2.47 nM | 0.000184 s⁻¹ | –
B6 | – | 1.81 nM | 0.000181 s⁻¹ | Kd (hPD-1 His-tagged): < 0.16 nM; koff (hPD-1 His-tagged): < 1e-05 s⁻¹; kon (hPD-1 His-tagged): 63000 M⁻¹ s⁻¹; Kd [3]: 1.7 nM; koff [3]: 9.6e-05 s⁻¹; kon [3]: 56000 M⁻¹ s⁻¹
